From patent US20230242658A1 (published 2023)

Tests used:
[1] = target: T1, human PD-L1 on CHO-K1 cells (human, UniProt Q9NZQ7 19-290); assay: FACS, CHO-K1/hPD-L1 cells
T1 construct: whole, on cells; also called CHO-K1/hPDL1; CHO-K1/hPD-L1

[2] = target: T2, human 4-1BB on CHO-K1 cells (human, UniProt Q07011 24-255); assay: FACS, CHO-K1/hu4-1BB cells
T2 construct: whole, on cells; also called CHO-K1/hu 4-1BB; CHO-K1/hu4-1BB
Description: The binding abilities of the antibody molecules to a CHO-K1 cell strain highly expressing human 4-1BB (CHO-K1/hu4-1BB, GenScript, M00538) and a CHO-K1 cell strain highly expressing cynomolgus monkey 4-1BB (CHO-K1/cyno4-1BB, GenScript, M00569) were determined by flow cytometry FACS. Specifically, the cells were digested and resuspended in a complete medium, and the cell density was adjusted to 2×10⁶ cells/mL. Then, the cells were seeded in a 96-well V-bottom plate (Corning, #3894) at 100 μL/well (2×10⁵ cells/well) and centrifuged at 4° C. for 5 min, and the supernatant was discarded. Then, the serially diluted antibody molecules were added to the 96-well plate at 100 μL/well, and the mixtures were well mixed. The antibody molecules might serially diluted 3-fold from the highest final concentration 200 nM to obtain a total of 12 concentrations. hIgG1 iso (CrownBio, #C0001) was used as an isotype control. The cells were incubated at 4° C. for 1 h away from light. Then, the cells in each well were rinsed twice with 100 μL of pre-cooled FACS buffer (PBS buffer containing 0.5% BSA) and centrifuged at 500 g at 4° C. for 5 min, and then the supernatant was discarded. […] Then, the cells in each well were then rinsed twice with 200 μL of pre-cooled FACS buffer and centrifuged at 500 g at 4° C. for 5 min, and then the supernatant was discarded. Finally, a pre-cooled FACS buffer was added at 200 μL/well to resuspend the cells. The fluorescence signal values were read using a BD FACS CANTOII flow cytometer.

T1 sequence (Q9NZQ7 19-290): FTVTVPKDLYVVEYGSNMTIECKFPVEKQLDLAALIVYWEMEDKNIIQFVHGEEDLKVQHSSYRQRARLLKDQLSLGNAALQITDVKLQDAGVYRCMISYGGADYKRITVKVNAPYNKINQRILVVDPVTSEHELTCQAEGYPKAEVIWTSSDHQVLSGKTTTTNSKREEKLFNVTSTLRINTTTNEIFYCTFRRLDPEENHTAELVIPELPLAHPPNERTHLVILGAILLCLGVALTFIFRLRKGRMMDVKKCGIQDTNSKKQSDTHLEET
T2 sequence (Q07011 24-255): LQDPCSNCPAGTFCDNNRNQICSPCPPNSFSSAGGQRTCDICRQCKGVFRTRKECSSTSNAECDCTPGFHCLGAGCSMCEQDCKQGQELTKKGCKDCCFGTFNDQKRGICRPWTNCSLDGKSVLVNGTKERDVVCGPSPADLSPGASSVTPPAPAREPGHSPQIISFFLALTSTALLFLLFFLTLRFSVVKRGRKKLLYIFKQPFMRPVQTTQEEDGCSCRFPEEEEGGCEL

binding result [1] | binding result [2] | Binder
binds | binds | PR007141 (bispecific antibody, human IgG1, kappa, PD-L1x4-1BB IgG-VH: PR000265 + VH of PR007294 at heavy-chain C-terminus) light: DIQMTQSPSTLSASVGDRVTVTCRASQSIYIWLAWYQQKPGKAPNLLIYKASSLETGVPSRFSGSGSGTEFTLTISSLQPDDFATYYCQQYYGSSRTFGQGTKVEIKRTVAAPSVFIFPPSDEQLKSGTASVVCLLNNFYPREAKVQWKVDNALQSGNSQESVTEQDSKDSTYSLSSTLTLSKADYEKHKVYACEVTHQGLSSPVTKSFNRGEC heavy: EVQLVESGGGLVQPGGSLRLSCAASGFTFSSYWMSWVRQAPGKGLEWVANIKQEGSEKYYVDSVKGRFTISRDNAKNSLYLQMNSLRAEDTAVYYCARDRAVAGAFDIWGQGTMVTVSSASTKGPSVFPLAPSSKSTSGGTAALGCLVKDYFPEPVTVSWNSGALTSGVHTFPAVLQSSGLYSLSSVVTVPSSSLGTQTYICNVNHKPSNTKVDKKVEPKSCDKTHTCPPCPAPEAAGAPSVFLFPPKPKDTLMISRTPEVTCVVVDVSHEDPEVKFNWYVDGVEVHNAKTKPREEQYNSTYRVVSVLTVLHQDWLNGKEYKCKVSNKALPAPIEKTISKAKGQPREPQVYTLPPSREEMTKNQVSLTCLVKGFYPSDIAVEWESNGQPENNYKTTPPVLDSDGSFFLYSKLTVDKSRWQQGNVFSCSVMHEALHNHYTQKSLSLSPGGGSGGSEVQLVESGGGLVKPGGSLRLSCVASGFTFSDYYMSWFRQAPGKGLEWVSYISGSGTTIDYADSVKGRFTISRDNAKNSLYLQMNSLRAEDTAVYYCAREREPVAGTLDFDNWGQGTLVTVSS
binds | binds | PR007142 (bispecific antibody, human IgG1, kappa, PD-L1x4-1BB IgG-VH: PR000265 + VH of PR007295 at heavy-chain C-terminus) light: DIQMTQSPSTLSASVGDRVTVTCRASQSIYIWLAWYQQKPGKAPNLLIYKASSLETGVPSRFSGSGSGTEFTLTISSLQPDDFATYYCQQYYGSSRTFGQGTKVEIKRTVAAPSVFIFPPSDEQLKSGTASVVCLLNNFYPREAKVQWKVDNALQSGNSQESVTEQDSKDSTYSLSSTLTLSKADYEKHKVYACEVTHQGLSSPVTKSFNRGEC heavy: EVQLVESGGGLVQPGGSLRLSCAASGFTFSSYWMSWVRQAPGKGLEWVANIKQEGSEKYYVDSVKGRFTISRDNAKNSLYLQMNSLRAEDTAVYYCARDRAVAGAFDIWGQGTMVTVSSASTKGPSVFPLAPSSKSTSGGTAALGCLVKDYFPEPVTVSWNSGALTSGVHTFPAVLQSSGLYSLSSVVTVPSSSLGTQTYICNVNHKPSNTKVDKKVEPKSCDKTHTCPPCPAPEAAGAPSVFLFPPKPKDTLMISRTPEVTCVVVDVSHEDPEVKFNWYVDGVEVHNAKTKPREEQYNSTYRVVSVLTVLHQDWLNGKEYKCKVSNKALPAPIEKTISKAKGQPREPQVYTLPPSREEMTKNQVSLTCLVKGFYPSDIAVEWESNGQPENNYKTTPPVLDSDGSFFLYSKLTVDKSRWQQGNVFSCSVMHEALHNHYTQKSLSLSPGGGSGGSEVQLVESGGGLVKPGGSLRLSCAASGFTFSDYYMSWIRQAPGKGLEWVSYISNNGSTIYYADSVKGRFTISRDNAKNSLYLQMNSLRAEDTAVYYCARVRPGGSGNYWDWFDPWGQGTMVTVSS
binds | binds | PR007146 (bispecific antibody, human IgG1, kappa, PD-L1x4-1BB IgG-VH: PR000265 + VH of PR007298 at heavy-chain C-terminus) light: DIQMTQSPSTLSASVGDRVTVTCRASQSIYIWLAWYQQKPGKAPNLLIYKASSLETGVPSRFSGSGSGTEFTLTISSLQPDDFATYYCQQYYGSSRTFGQGTKVEIKRTVAAPSVFIFPPSDEQLKSGTASVVCLLNNFYPREAKVQWKVDNALQSGNSQESVTEQDSKDSTYSLSSTLTLSKADYEKHKVYACEVTHQGLSSPVTKSFNRGEC heavy: EVQLVESGGGLVQPGGSLRLSCAASGFTFSSYWMSWVRQAPGKGLEWVANIKQEGSEKYYVDSVKGRFTISRDNAKNSLYLQMNSLRAEDTAVYYCARDRAVAGAFDIWGQGTMVTVSSASTKGPSVFPLAPSSKSTSGGTAALGCLVKDYFPEPVTVSWNSGALTSGVHTFPAVLQSSGLYSLSSVVTVPSSSLGTQTYICNVNHKPSNTKVDKKVEPKSCDKTHTCPPCPAPEAAGAPSVFLFPPKPKDTLMISRTPEVTCVVVDVSHEDPEVKFNWYVDGVEVHNAKTKPREEQYNSTYRVVSVLTVLHQDWLNGKEYKCKVSNKALPAPIEKTISKAKGQPREPQVYTLPPSREEMTKNQVSLTCLVKGFYPSDIAVEWESNGQPENNYKTTPPVLDSDGSFFLYSKLTVDKSRWQQGNVFSCSVMHEALHNHYTQKSLSLSPGGGSGGSEVQLVESGGGLVKPGGSLRLSCAASGFTFSDYYMSWVRQAPGKGLEWVSYISSSGSTIDYADSVKGRFTISRDNAKNSLFLEMNSLRAEDTAVYYCAREREEVAGTLDFDNWGQGTLVTVSS
binds | binds | PR007138 (bispecific antibody, human IgG1, kappa, PD-L1x4-1BB IgG-VH: PR000265 + VH of PR007291 at heavy-chain C-terminus) light: DIQMTQSPSTLSASVGDRVTVTCRASQSIYIWLAWYQQKPGKAPNLLIYKASSLETGVPSRFSGSGSGTEFTLTISSLQPDDFATYYCQQYYGSSRTFGQGTKVEIKRTVAAPSVFIFPPSDEQLKSGTASVVCLLNNFYPREAKVQWKVDNALQSGNSQESVTEQDSKDSTYSLSSTLTLSKADYEKHKVYACEVTHQGLSSPVTKSFNRGEC heavy: EVQLVESGGGLVQPGGSLRLSCAASGFTFSSYWMSWVRQAPGKGLEWVANIKQEGSEKYYVDSVKGRFTISRDNAKNSLYLQMNSLRAEDTAVYYCARDRAVAGAFDIWGQGTMVTVSSASTKGPSVFPLAPSSKSTSGGTAALGCLVKDYFPEPVTVSWNSGALTSGVHTFPAVLQSSGLYSLSSVVTVPSSSLGTQTYICNVNHKPSNTKVDKKVEPKSCDKTHTCPPCPAPEAAGAPSVFLFPPKPKDTLMISRTPEVTCVVVDVSHEDPEVKFNWYVDGVEVHNAKTKPREEQYNSTYRVVSVLTVLHQDWLNGKEYKCKVSNKALPAPIEKTISKAKGQPREPQVYTLPPSREEMTKNQVSLTCLVKGFYPSDIAVEWESNGQPENNYKTTPPVLDSDGSFFLYSKLTVDKSRWQQGNVFSCSVMHEALHNHYTQKSLSLSPGGGSGGSEVQLVESGGGLVKPGGSLRLSCVTSGFTFSDYYMNWIRQAPGKGQEWVSYISGNGSTIYYADSVKGRFTISRDNAKNSLYLQMNSLRAEDTAVYYCARVRPGGSGNYWDWFDPWGQGTPVTVSS
binds | binds | PR007143 (bispecific antibody, human IgG1, kappa, PD-L1x4-1BB IgG-VH: PR000265 + VH of PR007296 at heavy-chain C-terminus) light: DIQMTQSPSTLSASVGDRVTVTCRASQSIYIWLAWYQQKPGKAPNLLIYKASSLETGVPSRFSGSGSGTEFTLTISSLQPDDFATYYCQQYYGSSRTFGQGTKVEIKRTVAAPSVFIFPPSDEQLKSGTASVVCLLNNFYPREAKVQWKVDNALQSGNSQESVTEQDSKDSTYSLSSTLTLSKADYEKHKVYACEVTHQGLSSPVTKSFNRGEC heavy: EVQLVESGGGLVQPGGSLRLSCAASGFTFSSYWMSWVRQAPGKGLEWVANIKQEGSEKYYVDSVKGRFTISRDNAKNSLYLQMNSLRAEDTAVYYCARDRAVAGAFDIWGQGTMVTVSSASTKGPSVFPLAPSSKSTSGGTAALGCLVKDYFPEPVTVSWNSGALTSGVHTFPAVLQSSGLYSLSSVVTVPSSSLGTQTYICNVNHKPSNTKVDKKVEPKSCDKTHTCPPCPAPEAAGAPSVFLFPPKPKDTLMISRTPEVTCVVVDVSHEDPEVKFNWYVDGVEVHNAKTKPREEQYNSTYRVVSVLTVLHQDWLNGKEYKCKVSNKALPAPIEKTISKAKGQPREPQVYTLPPSREEMTKNQVSLTCLVKGFYPSDIAVEWESNGQPENNYKTTPPVLDSDGSFFLYSKLTVDKSRWQQGNVFSCSVMHEALHNHYTQKSLSLSPGGGSGGSEVQLVESGGGLVKPGGSLRLSCVASGFTFSDYYMSWFRQAPGKGLEWVSYISGSGTTIDYADSVKGRFTISRDNAKNSLYLQMNSLRAEDTAVYYCAREREAVAGTLDFDNWGQGTPVTVSS
binds | binds | PR007145 (bispecific antibody, human IgG1, kappa, PD-L1x4-1BB IgG-VH: PR000265 + VH of PR007297 at heavy-chain C-terminus) light: DIQMTQSPSTLSASVGDRVTVTCRASQSIYIWLAWYQQKPGKAPNLLIYKASSLETGVPSRFSGSGSGTEFTLTISSLQPDDFATYYCQQYYGSSRTFGQGTKVEIKRTVAAPSVFIFPPSDEQLKSGTASVVCLLNNFYPREAKVQWKVDNALQSGNSQESVTEQDSKDSTYSLSSTLTLSKADYEKHKVYACEVTHQGLSSPVTKSFNRGEC heavy: EVQLVESGGGLVQPGGSLRLSCAASGFTFSSYWMSWVRQAPGKGLEWVANIKQEGSEKYYVDSVKGRFTISRDNAKNSLYLQMNSLRAEDTAVYYCARDRAVAGAFDIWGQGTMVTVSSASTKGPSVFPLAPSSKSTSGGTAALGCLVKDYFPEPVTVSWNSGALTSGVHTFPAVLQSSGLYSLSSVVTVPSSSLGTQTYICNVNHKPSNTKVDKKVEPKSCDKTHTCPPCPAPEAAGAPSVFLFPPKPKDTLMISRTPEVTCVVVDVSHEDPEVKFNWYVDGVEVHNAKTKPREEQYNSTYRVVSVLTVLHQDWLNGKEYKCKVSNKALPAPIEKTISKAKGQPREPQVYTLPPSREEMTKNQVSLTCLVKGFYPSDIAVEWESNGQPENNYKTTPPVLDSDGSFFLYSKLTVDKSRWQQGNVFSCSVMHEALHNHYTQKSLSLSPGGGSGGSEVQLVESGGGLVKPGGSLRLSCAASGFTFSDYYMSWIRQAPGKGLEWVSYISRSGSTIYYADSVKGRFTISRDNAKNSLYLQMNSLRAEDTAVYYCARVRPGGSGNYWDWFDPWGQGTLVTVSS
